Assay results: US20220363757A1

Legend:
Assay in all cases: SPR, Fab over captured mutant LAG-3-Fc
[1] = target: human LAG-3 domain 1-2 Fc fusion, chimeric construct #15 (mutated region AA 95-100) (human) (UniProt P18627)
[2] = target: human LAG-3 domain 1-2 Fc fusion, chimeric construct #17 (mutated region AA 114-117) (human) (UniProt P18627)
[3] = target: human LAG-3 domain 1-2 Fc fusion, chimeric construct #22 (mutated region AA 140-142) (human) (UniProt P18627)
[4] = target: human LAG-3 domain 1-2 Fc fusion, chimeric construct #26 (mutated region AA 157-161) (human) (UniProt P18627)
[5] = target: human LAG-3 domain 1-2 Fc fusion, chimeric construct #4 (mutated region AA 40-47) (human) (UniProt P18627)
[6] = target: human LAG-3 domain 1-2 Fc fusion, chimeric construct #5 (mutated region AA 46-51) (human) (UniProt P18627)
[7] = target: human LAG-3 domain 1-2 Fc fusion, chimeric construct #9 (mutated region AA 66-71) (human) (UniProt P18627)
[8] = target: human LAG-3 domain 1-2 Fc fusion, point mutation #15 Q64A (human) (UniProt P18627)
[9] = target: human LAG-3 domain 1-2 Fc fusion, point mutation #19 D68A (human) (UniProt P18627)
[10] = target: human LAG-3 domain 1-2 Fc fusion, point mutation #2 Q41A (human) (UniProt P18627)
[11] = target: human LAG-3 domain 1-2 Fc fusion, point mutation #21 A74S (human) (UniProt P18627)
[12] = target: human LAG-3 domain 1-2 Fc fusion, point mutation #22 A75S (human) (UniProt P18627)
[13] = target: human LAG-3 domain 1-2 Fc fusion, point mutation #25 H78A (human) (UniProt P18627)
[14] = target: human LAG-3 domain 1-2 Fc fusion, point mutation #30 G83A (human) (UniProt P18627)
[15] = target: human LAG-3 domain 1-2 Fc fusion, point mutation #35 A88S (human) (UniProt P18627)
[16] = target: human LAG-3 domain 1-2 Fc fusion, point mutation #37 S90A (human) (UniProt P18627)
[17] = target: human LAG-3 domain 1-2 Fc fusion, point mutation #4 S45A (human) (UniProt P18627)
[18] = target: human LAG-3 domain 1-2 Fc fusion, point mutation #40 G93A (human) (UniProt P18627)
[19] = target: human LAG-3 domain 1-2 Fc fusion, point mutation #41 P94A (human) (UniProt P18627)
[20] = target: human LAG-3 domain 1-2 Fc fusion, point mutation #42 R95A (human) (UniProt P18627)
[21] = target: human LAG-3 domain 1-2 Fc fusion, point mutation #45 R98A (human) (UniProt P18627)
[22] = target: human LAG-3 domain 1-2 Fc fusion, point mutation #49 G105A (human) (UniProt P18627)
[23] = target: human LAG-3 domain 1-2 Fc fusion, point mutation #53 L109A (human) (UniProt P18627)
[24] = target: human LAG-3 domain 1-2 Fc fusion, point mutation #58 P115A (human) (UniProt P18627)
[25] = target: human LAG-3 domain 1-2 Fc fusion, point mutation #63 D123A (human) (UniProt P18627)
[26] = target: human LAG-3 domain 1-2 Fc fusion, point mutation #64 E124A (human) (UniProt P18627)
[27] = target: human LAG-3 domain 1-2 Fc fusion, point mutation #66 G126A (human) (UniProt P18627)
[28] = target: human LAG-3 domain 1-2 Fc fusion, point mutation #67 R127A (human) (UniProt P18627)
[29] = target: human LAG-3 domain 1-2 Fc fusion, point mutation #68 Q128A (human) (UniProt P18627)
[30] = target: human LAG-3 domain 1-2 Fc fusion, point mutation #69 R129A (human) (UniProt P18627)
[31] = target: human LAG-3 domain 1-2 Fc fusion, point mutation #70 G130A (human) (UniProt P18627)
[32] = target: human LAG-3 domain 1-2 Fc fusion, point mutation #71 D131A (human) (UniProt P18627)
[33] = target: human LAG-3 domain 1-2 Fc fusion, point mutation #9 D52A (human) (UniProt P18627)

Sequence of human LAG-3 domain 1-2 Fc fusion, point mutation #41 P94A (human) (P18627 23-266 P94A): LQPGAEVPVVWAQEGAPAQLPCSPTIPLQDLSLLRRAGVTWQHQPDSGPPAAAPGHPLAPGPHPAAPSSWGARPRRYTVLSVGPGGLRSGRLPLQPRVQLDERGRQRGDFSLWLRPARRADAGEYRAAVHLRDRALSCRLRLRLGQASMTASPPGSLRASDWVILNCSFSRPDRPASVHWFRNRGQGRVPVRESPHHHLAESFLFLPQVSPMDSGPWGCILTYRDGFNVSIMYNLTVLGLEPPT
Sequence of human LAG-3 domain 1-2 Fc fusion, point mutation #58 P115A (human) (P18627 23-266 P115A): as the sequence (P18627 23-266 P94A) above, with A72P, P93A counted along it
Sequence of human LAG-3 domain 1-2 Fc fusion, chimeric construct #4 (mutated region AA 40-47) (human) (P18627 other isoform, or with tags, fused parts or gaps mutant): as the sequence (P18627 23-266 P94A) above, with A18V, Q19H, P24L, T25E, A72P counted along it
Sequence of human LAG-3 domain 1-2 Fc fusion, point mutation #19 D68A (human) (P18627 23-266 D68A): as the sequence (P18627 23-266 P94A) above, with D46A, A72P counted along it
Sequence of human LAG-3 domain 1-2 Fc fusion, point mutation #21 A74S (human) (P18627 23-266 A74S): as the sequence (P18627 23-266 P94A) above, with A52S, A72P counted along it
Sequence of human LAG-3 domain 1-2 Fc fusion, chimeric construct #15 (mutated region AA 95-100) (human) (P18627 other isoform, or with tags, fused parts or gaps mutant): as the sequence (P18627 23-266 P94A) above, with A72P, R73G, R76S, T78V counted along it
Sequence of human LAG-3 domain 1-2 Fc fusion, point mutation #69 R129A (human) (P18627 23-266 R129A): as the sequence (P18627 23-266 P94A) above, with A72P, R107A counted along it
Sequence of human LAG-3 domain 1-2 Fc fusion, point mutation #63 D123A (human) (P18627 23-266 D123A): as the sequence (P18627 23-266 P94A) above, with A72P, D101A counted along it
Sequence of human LAG-3 domain 1-2 Fc fusion, chimeric construct #22 (mutated region AA 140-142) (human) (P18627 other isoform, or with tags, fused parts or gaps mutant): as the sequence (P18627 23-266 P94A) above, with A72P, R118T, A120K counted along it
Sequence of human LAG-3 domain 1-2 Fc fusion, point mutation #71 D131A (human) (P18627 23-266 D131A): as the sequence (P18627 23-266 P94A) above, with A72P, D109A counted along it
Sequence of human LAG-3 domain 1-2 Fc fusion, point mutation #35 A88S (human) (P18627 23-266 A88S): as the sequence (P18627 23-266 P94A) above, with A66S, A72P counted along it
Sequence of human LAG-3 domain 1-2 Fc fusion, point mutation #64 E124A (human) (P18627 23-266 E124A): as the sequence (P18627 23-266 P94A) above, with A72P, E102A counted along it
Sequence of human LAG-3 domain 1-2 Fc fusion, point mutation #68 Q128A (human) (P18627 23-266 Q128A): as the sequence (P18627 23-266 P94A) above, with A72P, Q106A counted along it
Sequence of human LAG-3 domain 1-2 Fc fusion, point mutation #49 G105A (human) (P18627 23-266 G105A): as the sequence (P18627 23-266 P94A) above, with A72P, G83A counted along it
Sequence of human LAG-3 domain 1-2 Fc fusion, point mutation #40 G93A (human) (P18627 23-266 G93A): as the sequence (P18627 23-266 P94A) above, with G71A, A72P counted along it
Sequence of human LAG-3 domain 1-2 Fc fusion, chimeric construct #9 (mutated region AA 66-71) (human) (P18627 other isoform, or with tags, fused parts or gaps mutant): as the sequence (P18627 23-266 P94A) above, with Q44R, G48D, P49Q, A72P counted along it
Sequence of human LAG-3 domain 1-2 Fc fusion, point mutation #30 G83A (human) (P18627 23-266 G83A): as the sequence (P18627 23-266 P94A) above, with G61A, A72P counted along it
Sequence of human LAG-3 domain 1-2 Fc fusion, point mutation #67 R127A (human) (P18627 23-266 R127A): as the sequence (P18627 23-266 P94A) above, with A72P, R105A counted along it
Sequence of human LAG-3 domain 1-2 Fc fusion, point mutation #4 S45A (human) (P18627 23-266 S45A): as the sequence (P18627 23-266 P94A) above, with S23A, A72P counted along it

Fab fragment of 25F7-Lag3.5 analogue
KD mutant/KD wild type [1]: 1.5 fold
KD mutant/KD wild type [2]: 1.3 fold
KD mutant/KD wild type [3]: 1.2 fold
KD mutant/KD wild type [4]: 0.9 fold
KD mutant/KD wild type [5]: 1.3 fold
KD mutant/KD wild type [6]: 1.3 fold
KD mutant/KD wild type [7]: 1.3 fold
KD mutant/KD wild type [8]: 1.3 fold
KD mutant/KD wild type [9]: 0.9 fold
KD mutant/KD wild type [10]: 1 fold
KD mutant/KD wild type [11]: 0.9 fold
KD mutant/KD wild type [12]: 0.9 fold
KD mutant/KD wild type [13]: 0.8 fold
KD mutant/KD wild type [14]: 1 fold
KD mutant/KD wild type [15]: 3.5 fold
KD mutant/KD wild type [16]: 1 fold
KD mutant/KD wild type [17]: 1 fold
KD mutant/KD wild type [18]: 6.2 fold
KD mutant/KD wild type [19]: 0.8 fold
KD mutant/KD wild type [20]: 1.9 fold
KD mutant/KD wild type [21]: 0.9 fold
KD mutant/KD wild type [22]: 1 fold
KD mutant/KD wild type [23]: 0.9 fold
KD mutant/KD wild type [24]: 1 fold
KD mutant/KD wild type [25]: 1 fold
KD mutant/KD wild type [26]: 1.1 fold
KD mutant/KD wild type [27]: 0.9 fold
KD mutant/KD wild type [28]: 0.7 fold
KD mutant/KD wild type [29]: 0.7 fold
KD mutant/KD wild type [30]: 1.2 fold
KD mutant/KD wild type [31]: 1.3 fold
KD mutant/KD wild type [32]: 1.2 fold
KD mutant/KD wild type [33]: 0.8 fold
